Data from patent US20100056445A1, “ADIPONECTIN FOR THE TREATMENT AND DIAGNOSIS OF ALBUMINURIA” (THOMAS JEFFERSON UNIVERSITY, priority 2006, published 2010).
Entries after “also recorded” stand apart in the source; their conditions may differ.

Columns and labels:
podocyte monolayer = assay: Albumin permeability across differentiated podocyte monolayer (Transwell); assay type: cell-based, mouse; conditions: adiponectin (globular or full length) 3 μg/ml, serum free, vs. control
Method: Podocyte cell culture: Conditionally immortalized mouse podocytes were kindly provided by Dr. Peter Mundel (Albert Einstein College of Medicine, Bronx, N.Y.) and were cultured as previously described (27). The cells harbor a temperature-sensitive variant of the SV40 large T antigen (tsA58) that is inducible by γ-interferon and stable at 33° C. but rapidly degraded at 37° C. (27). At 33° C., the large T antigen allows for cellular proliferation. The proliferating cells are maintained in collagen I—coated flasks in RPMI-1640 media supplemented with 10% FBS and 10 units/ml mouse recombinant γ-interferon. When the cells have reached confluence, they are passaged and allowed to differentiate at 37° C. for 8-10 days without γ-interferon in Dulbecco's modified Eagle's medium containing 5.5 mmol/l glucose and 5% FCS. For the permeability assay a modification of a previously published protocol (28) was adopted. Differentiated podocytes (0.2×10^6 podocytes/well) plated on collagen coated 24 well Transwell plates (Corning) were serum-starved ovenight when confluent. Cells were then modulated with globular adiponectin (PepROTech Inc.) with or without 1 mM adenosine 9-p-D-arabinofuranoside (ARA-A) (Sigma, St. Louis, Mo.), for 24 h. Cells were then washed twice with PBS supplemented with 1 mM MgCl2 and 1 mM CaCl2. The upper compartment was refilled with 0.25 ml RPMI 1640 alone and the lower compartment with 0.5 ml RPMI 1640 supplemented with 40 mg/ml BSA and incubated for 2 hour at 37° C. Total protein concentration in the upper compartment was determined using a Bio-Rad protein assay (Bio-Rad Laboratories, Hercules, Calif.).

Nox4 = Nox4 protein in cultured podocytes (immunoblot, confocal); assay type: cell-based, mouse; conditions: adiponectin for 16 h
[1] = test system: Adiponectin KO (Ad−/−) mice; assay: Urine albumin/creatinine ratio in treated adiponectin KO mice; assay type: in vivo, mouse; conditions: AdKO mice at 4 months of age; gAd 25 μg twice daily for 10 days (gAd or fAd)
Method: Adiponectin administration and animal studies: The mice were treated with 25 μg of recombinant human globular domain adiponectin (gAd; PepROTech, Rocky Hill, N.J.) subcutaneously twice daily for 10 consecutive days. The control animals were given PBS alone. 24-hour urines from each mouse were collected twice: one week before the injections and on the last day of the injections. The urine albumin and creatinine were measured with a mouse Albuwell ELISA kit and a Creatinine Companion kit (Exocell, Philadelphia, Pa.) (25,26). The mice were sacrificed five hours after the final gAd injection under anesthesia. Portions of kidney cortex were fixed in buffered formalin and embedded in paraffin. A portion of kidney cortical tissue was cut into 1 mm^3 pieces and fixed in 2.5% glutaraldehyde
Interventional animal studies: The mice were treated with 25 μg of recombinant human globular domain adiponectin gAd (PepROTech, Rocky Hill, N.J.), administered 25 μg/mouse twice a day for 10 consecutive days or full-length adiponectin (fAd) was administered using an AAV vector (AAV2/8 CMV fAd virus 4×1011 GC/mouse for 10 days). A separate group of Ad−/− mice were treated with 5-aminoimidazole-4-carboxamide-1-beta-D-ribonucleoside (AICAR) with a single i.p. dose of 300 mg/kg. The control animals were given PBS alone or control AAV. 24-hour urines from each mouse were collected before treatment and on the last day of the treatment period. The urine albumin and creatinine were measured with a mouse Albuwell ELISA kit and a Creatinine Companion kit (Exocell, Philadelphia, Pa.) (26, 25). As an index of oxidant stress timed urine collections were also analyzed for hydrogen peroxide by Amplex red assay (Invitrogen/Molecular Probes, Carlsbad, Calif.) following the manufacturer's protocol. Portions of liver, muscle and kidney was snap-frozen in liquid nitrogen for RNA isolation. An additional aliquot of normal kidney was frozen in OCT for immunofluorescent staining. […]

B1: adiponectin: 30 kDa adipocyte-secreted protein; in the first series of tests the recombinant globular domain was used, later gAd or fAd (protein, UniProt Q15848 19-244, looked up)
Adiponectin: ETTTQGPGVLLPLPKGACTGWMAGIPGHPGHNGAPGRDGRDGTPGEKGEKGDPGLIGPKGDIGETGVPGAEGPRGFPGIQGRKGEPGEGAYVYRSAFSVGLETYVTIPNMPIRFTKIFYNQQNHYDGSTGKFHCNIPGLYYFAYHITVYMKDVKVSLFKKDKAMLFTYDQYQENNVDQASGSVLLHLEVGDQVWLQVYGEGERNGLYADNDNDSTFTGFLLYHDTN
Permeability of albumin across a podocyte monolayer (podocyte monolayer): reduced
Podocyte Nox4 protein (Nox4): sufficient to suppress podocyte Nox4
Urine albumin/creatinine ratio (albuminuria) [1]: normalized albuminuria levels; also recorded: restores normal albuminuria
